Data reported in patent US20090099029A1, “Methods and substrates for conducting assays” (Invitrogen Corporation, priority 2005, published 2009).

System: kinases of Table 6 on Myelin Basic Protein (MBP)
Assay: Kinase assay using MBP substrate, ProQ Diamond stain (Table 6)
Format: biochemical
Conditions: kinase printed on MBP-coated slide; 20 uM ATP, 30° C.; ProQ Diamond Microarray Stain; graded Strong/Weak/Negative
Procedure, shortened: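 Reactions ran at 30° C. with 20 uM ATP, 4 mM MgCl2 and 5% DMSO in HEPES pH 7.5, inhibitor added or omitted. Kinases had been arrayed onto slide-bound dephosphorylated bovine MBP; phospho-signal read after ProQ Diamond staining.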

Molecule | MBP Kinase Activity
RPS6KA1(RSK1) (protein, left off: small tags and cut ends) MPLAQLKEPWPLMELVPLDPENGQTSGEEAGLQPSKDEGVLKEISITHHVKAGSEKADPSHFELLKVLGQGSFGKVFLVRKVTRPDSGHLYAMKVLKKATLKVRDRVRTKMERDILADVNHPFVVKLHYAFQTEGKLYLILDFLRGGDLFTRLSKEVMFTEEDVKFYLAELALGLDHLHSLGIIYRDLKPENILLDEEGHIKLTDFGLSKEAIDHEKKAYSFCGTVEYMAPEVVNRQGHSHSADWWSYGVLMFEMLTGSLPFQGKDRKETMTLILKAKLGMPQFLSTEAQSLLRALFKRNPANRLGSGPDGAEEIKRHVFYSTIDWNKLYRREIKPPFKPAVAQPDDTFYFDTEFTSRTPKDSPGIPPSAGAHQLFRGFSFVATGLMEDDGKPRAPQAPLHSVVQQLHGKNLVFSDGYVVKETIGVGSYSECKRCVHKATNMEYAVKVIDKSKRDPSEEIEILLRYGQHPNIITLKDVYDDGKHVYLVTELMRGGELLDKILRQKFFSEREASFVLHTIGKTVEYLHSQGVVHRDLKPSNILYVDESGNPECLRICDFGFAKQLRAENGLLMTPCYTANFVAPEVLKRQGYDEGCDIWSLGILLYTMLAGYTPFANGPSDTPEEILTRIGSGKFTLSGGNWNTVSETAKDLVSKMLHVDPHQRLTAKQVLQHPWVTQKDKLPQSQLSHQDLQLVKGAMAATYSALNSSKPTPQLKPIESSILAQRRVRKLPSTTL | Strong
RPS6KA2(RSK3) (protein, left off: small tags and cut ends) MDLSMKKFAVRRFFSVYLRRKSRSKSSSLSRLEEEGVVKEIDISHHVKEGFEKADPSQFELLKVLGQGSYGKVFLVRKVKGSDAGQLYAMKVLKKATLKVRDRVRSKMERDILAEVNHPFIVKLHYAFQTEGKLYLILDFLRGGDLFTRLSKEVMFTEEDVKFYLAELALALDHLHSLGIIYRDLKPENILLDEEGHIKITDFGLSKEAIDHDKRAYSFCGTIEYMAPEVVNRRGHTQSADWWSFGVLMFEMLTGSLPFQGKDRKETMALILKAKLGMPQFLSGEAQSLLRALFKRNPCNRLGAGIDGVEEIKRHPFFVTIDWNTLYRKEIKPPFKPAVGRPEDTFHFDPEFTARTPTDSPGVPPSANAHHLFRGFSFVASSLIQEPSQQDLHKVPVHPIVQQLHGNNIHFTDGYEIKEDIGVGSYSVCKRCVHKATDTEYAVKIIDKSKRDPSEEIEILLRYGQHPNIITLKDVYDDGKFVYLVMELMRGGELLDRILRQRYFSEREASDVLCTITKTMDYLHSQGVVHRDLKPSNILYRDESGSPESIRVCDFGFAKQLRAGNGLLMTPCYTANFVAPEVLKRQGYDAACDIWSLGILLYTMLAGFTPFANGPDDTPEEILARIGSGKYALSGGNWDSISDAAKDVVSKMLHVDPHQRLTAMQVLKHPWVVNREYLSPNQLSRQDVHLVKGAMAATYFALNRTPQAPRLEPVLSSNLAQRRGMKRLTSTRL | Negative
RPS6KA4(MSK2) (protein, left off: a dimerising Fc or GST) MGDEDDDESCAVELRITEANLTGHEEKVSVENFELLKVLGTGAYGKVFLVRKAGGHDAGKLYAMKVLRKAALVQRAKTQEHTRTERSVLELVRQAPFLVTLHYAFQTDAKLHLILDYVSGGEMFTHLYQRQYFKEAEVRVYGGEIVLALEHLHKLGIIYRDLKLENVLLDSEGHIVLTDFGLSKEFLTEEKERTFSFCGTIEYMAPEIIRSKTGHGKAVDWWSLGILLFELLTGASPFTLEGERNTQAEVSRRILKCSPPFPPRIGPVAQDLLQRLLCKDPKKRLGAGPQGAQEVRNHPFFQGLDWVALAARKIPAPFRPQIRSELDVGNFAEEFTRLEPVYSPPGSPPPGDPRIFQGYSFVAPSILFDHNNAVMTDGLEAPGAGDRPGRAAVARSAMMQDSPFFQQYELDLREPALGQGSFSVCRRCRQRQSGQEFAVKILSRRLEANTQREVAALRLCQSHPNVVNLHEVHHDQLHTYLVLELLRGGELLEHIRKKRHFSESEASQILRSLVSAVSFMHEEAGVVHRDLKPENILYADDTPGAPVKIIDFGFARLRPQSPGVPMQTPCFTLQYAAPELLAQQGYDESCDLWSLGVILYMMLSGQVPFQGASGQGGQSQAAEIMCKIREGRFSLDGEAWQGVSEEAKELVRGLLTVDPAKRLKLEGLRGSSWLQDGSARSSPPLRTPDVLESSGPAVRSGLNATFMAFNRGKREGFFLKSVENAPLAKRRKQKLRSATASRRGSPAPANPGRAPVASKGAPRRANGPLPPS | Weak
RPS6KB1(p70S6K) (protein, left off: a dimerising Fc or GST) MRRRRRRDGFYPAPDFRDREAEDMAGVFDIDLDQPEDAGSEDELEEGGQLNESMDHGGVGPYELGMEHCEKFEISETSVNRGPEKIRPECFELLRVLGKGGYGKVFQVRKVTGANTGKIFAMKVLKKAMIVRNAKDTAHTKAERNILEEVKHPFIVDLIYAFQTGGKLYLILEYLSGGELFMQLEREGIFMEDTACFYLAEISMALGHLHQKGIIYRDLKPENIMLNHQGHVKLTDFGLCKESIHDGTVTHTFCGTIEYMAPEILMRSGHNRAVDWWSLGALMYDMLTGAPPFTGENRKKTIDKILKCKLNLPPYLTQEARDLLKKLLKRNAASRLGAGPGDAGEVQAHPFFRHINWEELLARKVEPPFKPLLQSEEDVSQFDSKFTRQTPVDSPDDSTLSESANQVFLGFEYVAPSVLES | Negative
RPS6KB2(p70S6K2) (protein, left off: a dimerising Fc or GST) MAAVFDLDLETEEGSEGEGEPELSPADACPLAELRAAGLEPVGHYEEVELTETSVNVGPERIGPHCFELLRVLGKGGYGKVFQVRKVQGTNLGKIYAMKVLRKAKIVRNAKDTAHTRAERNILESVKHPFIVELAYAFQTGGKLYLILECLSGGELFTHLEREGIFLEDTACFYLAEITLALGHLHSQGIIYRDLKPENIMLSSQGHIKLTDFGLCKESIHEGAVTHTFCGTIEYMAPEILVRSGHNRAVDWWSLGALMYDMLTGSPPFTAENRKKTMDKIIRGKLALPPYLTPDARDLVKKFLKRNPSQRIGGGPGDAADVQRHPFFRHMNWDDLLAWRVDPPFRPCLQSEEDVSQFDTRFTRQTPVDSPDDTALSESANQAFLGFTYVAPSVLDSIKEGFSFQPKLRSPRRLNSSPRAPVSPLKFSPFEGFRPSPSLPEPTELPLPPLLPPPPPSTTAPLPIRPPSGTKKSKRGRGRPGR | Negative
EPHB4 (protein, left off: small tags and cut ends) LCLRKQSNGREAEYSDKHGQYLIGHGTKVYIDPFTYEDPNEAVREFAKEIDVSYVKIEEVIGAGEFGEVCRGRLKAPGKKESCVAIKTLKGGYTERQRREFLSEASIMGQFEHPNIIRLEGVVTNSMPVMILTEFMENGALDSFLRLNDGQFTVIQLVGMLRGIASGMRYLAEMSYVHRDLAARNILVNSNLVCKVSDFGLSRFLEENSSDPTYTSSLGGKIPIRWTAPEAIAFRKFTSASDAWSYGIVMWEVMSFGERPYWDMSNQDVINAIEQDYRLPPPPDCPTSLHQLMLDCWQKDRNARPRFPQVVSALDKMIRNPASLKIVARENGGASHPLLDQRQPHYSAFGSVGEWLRAIKMGRYEESFAAAGFGSFELVSQISAEDLLRIGVTLAGHQKKILASVQHMKSQAKPGTPGGTGGPAPQY | Strong
SGK (protein, UniProt O00141 1-431, looked up) Serine/threonine-protein …: MTVKTEAAKGTLTYSRMRGMVAILIAFMKQRRMGLNDFIQKIANNSYACKHPEVQSILKISQPQEPELMNANPSPPPSPSQQINLGPSSNPHAKPSDFHFLKVIGKGSFGKVLLARHKAEEVFYAVKVLQKKAILKKKEEKHIMSERNVLLKNVKHPFLVGLHFSFQTADKLYFVLDYINGGELFYHLQRERCFLEPRARFYAAEIASALGYLHSLNIVYRDLKPENILLDSQGHIVLTDFGLCKENIEHNSTTSTFCGTPEYLAPEVLHKQPYDRTVDWWCLGAVLYEMLYGLPPFYSRNTAEMYDNILNKPLQLKPNITNSARHLLEGLLQKDRTKRLGAKDDFMEIKSHVFFSLINWDDLINKKITPPFNPNVSGPNDLRHFDPEFTEEPVPNSIGKSPDSVLVTASVKEAAEAFLGFSYAPPTDSFL | Strong
